In assay [1] the target is Singapore16 N2 NA (head domain, residues 82-469) with VASP tetramerization domain (influenza A virus A/Singapore/INFIMH-16-0019/2016 (H3N2)). Briefly: negative-stain electron microscopy.
For assay [2], the target named is Singapore16 N2 NA (head domain, residues 82-469) without VASP tetramerization domain (influenza A virus A/Singapore/INFIMH-16-0019/2016 (H3N2)). Briefly: negative-stain electron microscopy.

Substance “Singapore16 N2 NA (head domain, residues 82-469) with VASP tetramerization domain (domain or fragment)” came in with a stoichiometry N in assay [1] of 4. “Singapore16 N2 NA (head domain, residues 82-469) without VASP tetramerization domain (domain or fragment)”: in assay [2], the stoichiometry N was 4.

A word on the stoichiometry N: it is a count of units in the complex or per binding partner.

Values taken from article PMC9772378.
